Patent US20040053249A1

Molecular target: Fas on Jurkat cells (cell line from human T cell) (human) (UniProt P25445)
Assay: cell-based or functional assay

UniProt P25445, sequence (P25445 26-335): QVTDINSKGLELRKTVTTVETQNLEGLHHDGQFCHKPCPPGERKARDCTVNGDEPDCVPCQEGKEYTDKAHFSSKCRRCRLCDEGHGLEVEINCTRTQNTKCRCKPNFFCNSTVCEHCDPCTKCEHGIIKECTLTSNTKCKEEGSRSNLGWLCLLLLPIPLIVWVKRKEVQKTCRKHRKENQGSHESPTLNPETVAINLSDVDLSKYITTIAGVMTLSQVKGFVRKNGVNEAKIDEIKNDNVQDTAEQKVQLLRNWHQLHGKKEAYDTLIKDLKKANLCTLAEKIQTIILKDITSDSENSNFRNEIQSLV

## FLAG-IleZip-shFasL (pM1815), fusion protein of FLAG peptide, leucine zipper and the extracellular domain of human Fas ligand
  apoptosis-inducing activity relative to IleZip-shFasL (WST-1 assay, Jurkat cells): 10 times
  apoptosis-inducing activity relative to shFasL (WST-1 assay, Jurkat cells): 100 times
